From IntAct's records for PubMed 15208391 come the findings set out here.

To fix the notation:
B1: Cullin-1 (Arabidopsis thaliana (Mouse-ear cress)), Q94AH6 (parent)
chain: MERKTIDLEQGWDYMQTGITKLKRILEGLNEPAFDSEQYMMLYTTIYNMCTQKPPHDYSQQLYDKYREAFEEYINSTVLPALREKHDEFMLRELFKRWSNHKVMVRWLSRFFYYLDRYFIARRSLPPLNEVGLTCFRDLVYNELHSKVKQAVIALVDKEREGEQIDRALLKNVLDIYVEIGMGQMERYEEDFESFMLQDTSSYYSRKASSWIQEDSCPDYMLKSEECLKKERERVAHYLHSSSEPKLVEKVQHELLVVFASQLLEKEHSGCRALLRDDKVDDLSRMYRLYHKILRGLEPVANIFKQHVTAEGNALVQQAEDTATNQVANTASVQEQVLIRKVIELHDKYMVYVTECFQNHTLFHKALKEAFEIFCNKTVAGSSSAELLATFCDNILKKGGSEKLSDEAIEDTLEKVVKLLAYISDKDLFAEFYRKKLARRLLFDRSANDDHERSILTKLKQQCGGQFTSKMEGMVTDLTLARENQNSFEDYLGSNPAANPGIDLTVTVLTTGFWPSYKSFDINLPSEMIKCVEVFKGFYETKTKHRKLTWIYSLGTCHINGKFDQKAIELIVSTYQAAVLLLFNTTDKLSYTEILAQLNLSHEDLVRLLHSLSCAKYKILLKEPNTKTVSQNDAFEFNSKFTDRMRRIKIPLPPVDERKKVVEDVDKDRRYAIDAAIVRIMKSRKVLGHQQLVSECVEQLSRMFKPDIKAIKKRMEDLITRDYLERDKENPNMFRYLA
partner: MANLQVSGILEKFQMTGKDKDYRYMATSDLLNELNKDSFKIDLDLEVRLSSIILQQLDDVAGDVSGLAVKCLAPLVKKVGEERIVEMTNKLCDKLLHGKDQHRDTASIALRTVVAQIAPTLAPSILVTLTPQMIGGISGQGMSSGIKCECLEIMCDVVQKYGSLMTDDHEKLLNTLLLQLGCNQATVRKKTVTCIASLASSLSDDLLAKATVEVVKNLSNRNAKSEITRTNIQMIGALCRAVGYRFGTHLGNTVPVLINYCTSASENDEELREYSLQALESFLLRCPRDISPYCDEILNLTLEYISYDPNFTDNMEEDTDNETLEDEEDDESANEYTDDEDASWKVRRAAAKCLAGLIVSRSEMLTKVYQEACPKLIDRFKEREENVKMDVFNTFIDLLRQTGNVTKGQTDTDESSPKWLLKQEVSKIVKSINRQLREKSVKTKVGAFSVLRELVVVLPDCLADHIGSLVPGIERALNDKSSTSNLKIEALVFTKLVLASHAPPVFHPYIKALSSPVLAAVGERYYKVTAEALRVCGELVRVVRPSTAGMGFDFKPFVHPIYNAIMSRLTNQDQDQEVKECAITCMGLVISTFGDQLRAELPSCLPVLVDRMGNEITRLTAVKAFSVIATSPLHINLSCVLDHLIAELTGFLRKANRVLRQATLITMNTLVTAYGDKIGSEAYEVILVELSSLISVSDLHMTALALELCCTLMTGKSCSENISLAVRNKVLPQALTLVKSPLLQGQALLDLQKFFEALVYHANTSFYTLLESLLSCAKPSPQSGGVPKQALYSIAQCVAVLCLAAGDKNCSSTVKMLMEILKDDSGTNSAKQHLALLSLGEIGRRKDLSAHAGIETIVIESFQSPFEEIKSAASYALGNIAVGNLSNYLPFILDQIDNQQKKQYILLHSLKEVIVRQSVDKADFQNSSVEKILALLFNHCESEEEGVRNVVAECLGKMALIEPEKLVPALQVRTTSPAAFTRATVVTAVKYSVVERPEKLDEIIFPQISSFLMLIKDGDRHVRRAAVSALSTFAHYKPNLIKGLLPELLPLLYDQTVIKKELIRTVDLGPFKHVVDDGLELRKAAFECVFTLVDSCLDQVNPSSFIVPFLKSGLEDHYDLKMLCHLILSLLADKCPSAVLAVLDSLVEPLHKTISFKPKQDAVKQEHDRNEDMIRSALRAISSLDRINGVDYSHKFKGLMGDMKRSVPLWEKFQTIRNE

This assay covers variants of B1. Conditions: with cand1_arath CAND1, Q8L5Y6.
With K682R, the “effect of a mutation on the interaction” value is given as “increasing interaction strength”.
